{"source": "paper PMC13638050", "about": "(PLOS Biology, 2026)", "binders": {"B1": {"name": "somatic CR9114 Fab VH I73W (Fab, V domains shown)", "VH": "QVQLVQSGAEVKKPGSSVKVSCKSSGGTSNNYAISWVRQAPGQGLDWMGGISPIFGSTAYAQKFQGRVTISADWFSNTAYMELNSLTSEDTAVYFCARHGNYYYYSGMDVWGQGTTVTVSS", "VL": "SYVLTQPPAVSGTPGQRVTISCSGSDSNIGRRSVNWYQQFPGTAPKLLIYSNDQRPSVVPDRFSGSKSGTSASLAISGLQSEDEAEYYCAAWDDSLKGAVFGGGTQLTVL"}, "B2": {"name": "somatic CR9114 Fab VH S24F (Fab, V domains shown)", "VH": "B1 VH with S24F, W74I", "VL": "B1 VL"}, "B3": {"name": "somatic CR9114 Fab VH S24L (Fab, V domains shown)", "VH": "B1 VH with S24L, W74I", "VL": "B1 VL"}, "B4": {"name": "somatic CR9114 Fab VH S52V (Fab, V domains shown)", "VH": "B1 VH with S52V, W74I", "VL": "B1 VL"}, "B5": {"name": "somatic CR9114 Fab VH S52G (Fab, V domains shown)", "VH": "B1 VH with S52G, W74I", "VL": "B1 VL"}, "B6": {"name": "germline CR9114 Fab (inferred germline of CR9114) (Fab, V domains shown)", "VH": "QVQLVQSGAEVKKPGSSVKVSCKASGGTFSSYAISWVRQAPGQGLEWMGGIIPIFGTANYAQKFQGRVTITADKSTSTAYMELSSLRSEDTAVYYCARHGNYYYYYGMDVWGQGTTVTVS", "VL": "B1 VL"}}, "note": "Where a chain is given by its changes, count along the chain named. Names and notes keep the numbering of the source."}
{"molecular_target": "T1, influenza B/Lee/1940 (B/Lee40) HA (influenza B virus B/Lee/1940, biotin on the BirA biotinylation site (BirA kit))", "T1 construct": "source: Sf9 (baculovirus), purified from the supernatant (Ni Sepharose excel, SEC)", "T1 chain": "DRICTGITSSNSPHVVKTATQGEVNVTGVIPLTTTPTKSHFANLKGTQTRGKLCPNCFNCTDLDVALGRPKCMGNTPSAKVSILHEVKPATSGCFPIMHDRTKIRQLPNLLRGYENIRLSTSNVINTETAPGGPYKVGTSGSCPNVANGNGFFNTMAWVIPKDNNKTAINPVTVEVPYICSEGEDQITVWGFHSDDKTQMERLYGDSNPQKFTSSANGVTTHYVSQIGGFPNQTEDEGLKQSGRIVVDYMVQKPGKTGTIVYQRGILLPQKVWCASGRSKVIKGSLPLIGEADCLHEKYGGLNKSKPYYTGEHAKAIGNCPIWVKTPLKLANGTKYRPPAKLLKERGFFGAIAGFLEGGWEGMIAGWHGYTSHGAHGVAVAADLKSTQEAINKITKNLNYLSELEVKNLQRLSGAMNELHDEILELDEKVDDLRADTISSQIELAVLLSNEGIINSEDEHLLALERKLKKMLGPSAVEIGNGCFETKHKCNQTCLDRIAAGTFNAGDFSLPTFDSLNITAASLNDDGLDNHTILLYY", "assay": "BLI", "settings": "both partners purified"}
{"binder": "B1", "binding result": "no binding"}
{"binder": "B2", "binding result": "no binding"}
{"binder": "B3", "binding result": "no binding"}
{"binder": "B4", "binding result": "no binding"}
{"binder": "B5", "binding result": "no binding"}
{"molecular_target": "H1 stem (recombinant HA stem construct #4900 designed based on H1N1 A/Brisbane/59/2007 HA) (influenza A virus H1N1 …, biotin on the BirA biotinylation site (BirA kit))", "assay": "BLI", "settings": "both partners purified", "units": {"Kd": "nM"}}
{"binder": "B6", "Kd": 185}
